Where “and” joins values, the source holds several entries; their conditions need not be identical. Identical values can stand only once. Like-named read-outs stand apart in the source and are kept apart here.

Usually Kd stands for the concentration at which binding is half-saturated. A word on the koff: it is a measure of how fast the partners let go of each other. Low readings indicate slow dissociation, high ones fast dissociation. As a reminder, the kon is the rate constant with which the complex forms.

The target in experiment [1] is T1, human alpha-synuclein (human, UniProt P37840 1-140). Briefly: SPR BIAcore 3000, antibody captured by goat anti-human IgG on CM5 chip, human alpha-synuclein as analyte; calculated binding constants [continued) C].
For experiment [2], the target named is T2, human beta-synuclein (human, UniProt Q16143 1-134).
T2 construct: Screening ligand; also called Beta Panel
Description: Octet (ForteBio), antibody coupled to amine-reactive sensors, synuclein in solution [Human beta-syn]. For orientation: In BLI a coated tip is dipped into the sample, and binding shifts an interference pattern.
Description: (§1) Amine reactive sensors (ForteBio, art. no. 18-0008) were used for immobilization of HuMabs. […] Activated sensors were immobilized with HuMabs during 600 seconds.

Experiment [3] concerns the target T1, human alpha-synuclein. Description: SPR BIAcore T200, human alpha-synuclein immobilised, antibody as analyte, 1:1 binding fit. Background: Surface plasmon resonance follows binding to a sensor surface in real time, without labels.
Experiment [4] concerns the target T3, human gamma-synuclein (human, UniProt O76070 1-127).
T3 construct: Screening ligand; also called Gamma Panel
Description: Octet (ForteBio), antibody coupled to amine-reactive sensors, synuclein in solution [continued), Human gamma-syn].
Description: as §1

Experiment [5] concerns the target T1, human alpha-synuclein. Briefly: SPR Biacore 3000, synuclein ligand format.
Experiment [6] concerns the target T1, human alpha-synuclein. Description: SPR Biacore 3000, IgG captured by anti-human IgG on CM5 chip.
The target of experiment [7] is T1, human alpha-synuclein. The experiment is described as above. The source holds these as a separate data set.
Experiment [8] addresses T1, human alpha-synuclein. Description: SPR BIAcore 3000, antibody captured by goat anti-human IgG on CM5 chip, human alpha-synuclein as analyte; calculated binding constants [continued) C]. This is another data set of the same source.
Experiment [9] addresses T3, human gamma-synuclein. Briefly: Octet (ForteBio), antibody coupled to amine-reactive sensors, synuclein in solution [continued), Human gamma-syn]. This is another data set of the same source.
Experiment [10] concerns the target T2, human beta-synuclein. Briefly: Octet (ForteBio), antibody coupled to amine-reactive sensors, synuclein in solution [continued), Human beta-syn].
In experiment [11] the target is T1, human alpha-synuclein. Description: SPR BIAcore 3000, antibody captured by goat anti-human IgG on CM5 chip, human alpha-synuclein as analyte; calculated binding constants [continued) C]. This is another data set of the same source.

T3 sequence (O76070 whole entry): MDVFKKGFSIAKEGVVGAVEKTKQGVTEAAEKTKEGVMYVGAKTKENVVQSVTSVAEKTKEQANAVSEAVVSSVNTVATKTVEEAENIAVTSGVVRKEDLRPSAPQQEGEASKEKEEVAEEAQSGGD
T2 sequence (Q16143 whole entry): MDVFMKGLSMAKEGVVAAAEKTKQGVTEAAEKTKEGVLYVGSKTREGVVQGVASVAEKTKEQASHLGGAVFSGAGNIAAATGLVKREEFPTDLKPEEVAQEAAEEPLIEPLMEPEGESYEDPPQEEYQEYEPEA

B1: GM37 (antibody, V domains shown)
VH: EVQLLESGGGLVQTGGSLRLSCAASGFTFSSYAMTWVRQAPGKGLEWVSAIRSNGDRTDYADSVKGRFTISRDNSQNTLYLQMNSLRAEDTAVYYCAKNWAPFDSWGQGTLVT
VL: not shown
notes: also called GM37wt; GM37 wt
In the case of B1, in [1], the Ka is 2.33e+08 M⁻¹ and the Kd was 4.29 nM. In addition, the binding result in experiment [2] is given as “no binding”. Further, in experiment [3], the Kd is 27 nM and 28 nM; the dissociation rate constant (koff) is 0.0192 s⁻¹ and 0.0148 s⁻¹; the on-rate constant (kon) is 701000 M⁻¹ s⁻¹ and 528000 M⁻¹ s⁻¹. In addition, the binding result in [4] is recorded as “no binding”.

B2: GM37 variant 1 (antibody, V domains shown)
VH: EVQLLESGGGLVQTGGSLRLSCAASGFTFSSYAMTWVRQAPGKGLEWVSAIRSSGDRTDYADSVKGRFTISRDNSQNTLYLQMNSLRAEDTAVYYCAKNWAPFDSWGQGTLVT
VL: not shown
For B2, in experiment [3], the Kd is 22 nM, the koff came to 0.0137 s⁻¹ and the on-rate (kon) stood at 634000 M⁻¹ s⁻¹.

B3: GM37 variant 3 (antibody, V domains shown)
VH: EVQLLESGGGLVQTGGSLRLSCAASGFTFSSYAMTWVRQAPGKGLEWVSAIRSHGDRTDYADSVKGRFTISRDNSQNTLYLQMNSLRAEDTAVYYCAKNWAPFDSWGQGTLVT
VL: not shown
In experiment [3], B3 had an equilibrium dissociation constant (Kd) of 40 nM, a koff of 0.0228 s⁻¹ and a kon of 577000 M⁻¹ s⁻¹.

B4: ch2E6 (antibody, V domains shown)
VH: QVQLQQPGAELVKPGASVKLSCTASGYTFTSYWMHWMKQRPGRGLEWIGRIDPNSGTTKYNVNFKTKATLTVDKPSSTAYMHLSSLTSEDSAVYYCARLGHYGNLYAMDYWGQGTSVT
VL: QIVLTQSPAIMSASPGEKVTMTCSASSSVSYMHWYQQKSGTSPKRWIYDTSKLASGVPTRFSGSGSGTSYSLTISSMDTEDAATYYCQQWSSNPPTFGAGTKLELK
notes: also called chimeric 2E6
In [5], B4 gave a KD improvement of 1 fold, a Ka of 2.38e+08 M⁻¹, a Kd of 4.21 nM and a koff of 0.000265 s⁻¹. In addition, in experiment [5], the kon came out at 62900 M⁻¹ s⁻¹. Further, in experiment [6], the KD improvement worked out at 1 fold, the Ka was found to be 1.76e+07 M⁻¹, the equilibrium dissociation constant (Kd) turned out to be 56.7 nM and the off-rate constant (koff) was found to be 0.00139 s⁻¹. The same molecule came in with an association rate constant (kon) in experiment [6] of 24500 M⁻¹ s⁻¹. In [7], the KD improvement is 1 fold, the Ka was 1.76e+07 M⁻¹, binding was characterised by a dissociation constant (Kd) of 56.7 nM and the koff stood at 0.00139 s⁻¹. In experiment [7], this molecule registered an association rate constant (kon) of 24500 M⁻¹ s⁻¹.

B5: 2E6-HLD-1 (antibody, V domains shown)
VH: QVQLVQSGAEVKKPGASVKVSCKASGYTFTSYWMHWMRQAPGQGLEWIGRIDPNSGTTKYNVNFKTRATLTVDKSTSTAYMELSSLRSEDTAVYYCARLGHYGNLYAMDYWGQGTLVT
VL: EIVLTQSPATLSLSPGERATLSCSASSSVSYMHWYQQKPGQAPRRWIYDTSKLASGVPARFSGSGSGTDYTLTISSLEPEDFAVYYCQQWSSNPPTFGQGTKLEIKR
notes: Humanized 2E6 tested as IgG; also called Humanized HLD-1
In experiment [5], B5 came in with a KD improvement of 2 fold, a Ka of 5.81e+08 M⁻¹, a dissociation constant (Kd) of 1.72 nM and a koff of 0.000212 s⁻¹. Moreover, the kon in experiment [5] worked out at 123000 M⁻¹ s⁻¹. Also, in experiment [6], the KD improvement was 2.5 fold, the Ka worked out at 4.4e+07 M⁻¹, binding was characterised by a dissociation constant (Kd) of 22.7 nM and the koff was determined as 0.000944 s⁻¹. In addition, in experiment [6], the kon stood at 41600 M⁻¹ s⁻¹. Moreover, in experiment [7], the KD improvement came out at 2.5 fold, the Ka came to 4.4e+07 M⁻¹, the Kd worked out at 22.7 nM and the koff is 0.000944 s⁻¹. Besides, the on-rate (kon) in [7] was found to be 41600 M⁻¹ s⁻¹.

B6: 9C12 (antibody, V domains shown)
VH: QVQLVQSGAEVKKPGASVKVSCKASGYTFTSYWMHWMRQAPGQGLEWIGRIDPNSGTTKYNVNIKTRATLTVDKSTSTAYMELSSLRSEDTAVYYCARLGHYGNLYAMDYWGQGTLVT
VL: EIVLTQSPATLSLSPGERATLSCSASSSVSYMHWYQQKPGQAPRRLIYDTSKLASGVPARFSGSGSGTDYTLTISSLEPEDFAVYYCQQWSSNPPTFGQGTKLEIK
In [7], B6 gave a KD improvement of 10 fold, a Ka of 1.78e+08 M⁻¹, an equilibrium dissociation constant (Kd) of 5.62 nM and a dissociation rate constant (koff) of 0.000278 s⁻¹. In experiment [7], this molecule displayed an on-rate constant (kon) of 49500 M⁻¹ s⁻¹.

B7: 2E6-HLD-2 (antibody, V domains shown)
VH: QVQLVQSGAEVKKPGASVKVSCKASGYTFTSYWMHWVRQAPGQGLEWIGRIDPNSGTTKYNVNFKTRATLTVDKSTSTAYMELSSLRSEDTAVYYCARLGHYGNLYAMDYWGQGTLVT
VL: EIVLTQSPATLSLSPGERATLSCSASSSVSYMHWYQQKPGQAPRRWIYDTSKLASGVPARFSGSGSGTDYTLTISSLEPEDFAVYYCQQWSSNPPTFGQGTKLEIKR
notes: Humanized 2E6
Turning to B7, in experiment [5], the KD improvement came to 1 fold, the Ka amounted to 2.04e+08 M⁻¹, binding was put at a Kd of 4.91 nM and the koff is 0.000285 s⁻¹. The molecule also registered an association rate constant (kon) in experiment [5] of 58000 M⁻¹ s⁻¹.

B8: 2E6 HLD 3 (antibody, V domains shown)
VH: QVQLVQSGAEVKKPGASVKVSCKASGYTFTSYWMHWMRQAPGQGLEWIGRIDPNSGTTKYNVNFKTRVTLTVDKSTSTAYMELSSLRSEDTAVYYCARLGHYGNLYAMDYWGQGTLVT
VL: EIVLTQSPATLSLSPGERATLSCSASSSVSYMHWYQQKPGQAPRRWIYDTSKLASGVPARFSGSGSGTDYTLTISSLEPEDFAVYYCQQWSSNPPTFGQGTKLEIKR
Regarding B8, in experiment [5], the KD improvement is 1 fold, the Ka amounted to 1.88e+08 M⁻¹, the off-rate constant (koff) came to 0.00026 s⁻¹ and the association rate constant (kon) came to 48900 M⁻¹ s⁻¹.

B9: 7C4 (antibody, V domains shown)
VH: QVQLVQSGAEVKKPGASVKVSCKASGYTFTRYWMHWMRQAPGQGPEWIGRIDPNSGTTKYNVNFKTRATLTVDKSTSTAYMELSSLRSEDTAVYYCARLGHYGNLYAMDYWGQGTLVT
VL: EIVLTQSPATLSLSPGERATLSCSASSSVSFMHWYQQKPGQAPRRWIYDTSKLASGVPARFSGSGSGTDYTLTISSLEPEDFAVYYCQQWSSNPPTFGQGTKLEIK
With B9, in experiment [7], the KD improvement was 7 fold, the Ka worked out at 1.23e+08 M⁻¹, the Kd is 8.12 nM and the koff is 0.000997 s⁻¹. In experiment [7], the kon was found to be 123000 M⁻¹ s⁻¹.

B10: 8D9 (antibody, V domains shown)
VH: QVQLVQSGAEVKKPGASVKVSCKASGYTFTSYWMHWMRQAPGQGLEWIGRIDPNSGTTKYNVNFKTRATLTVDKSTSTAYMELSSLRSEDTAVYYCARLGHYGNLYAKDYWGQGTLVT
VL: EIVLTQSPATLSLSPGERATLSCSASSSVSYIHWYQQKPGQAPRRWIYDTSKLASGVPARFSGSGSGTDYTLTISSLEPEDFAVYYCQQWSSNPPTFGQGTKLEIK
Turning to B10, in experiment [7], the KD improvement was determined as 8.7 fold, the Ka came to 1.53e+08 M⁻¹, binding was characterised by a dissociation constant (Kd) of 6.52 nM and the dissociation rate constant (koff) turned out to be 0.000483 s⁻¹. Also, the on-rate constant (kon) in experiment [7] was found to be 74100 M⁻¹ s⁻¹.

B11: 9E4 (antibody, V domains shown)
VH: EVQLVESGGGLVQPGGSLRLSCAASGFTFSNYGMSWVRQAPGKGLEWVASISSGGGSTYYPDNVKGRFTISRDNAKNSLYLQMNSLRAEDTAVYYCARGGAGIDYWGQGTLVTVSS
VL: DIQMTQSPSSLSASVGDRVTITCKSIQTLLYSSNQKNYLAWFQQKPGKAPKLLIYWASIRKSGVPSRFSGSGSGTDFTLTISSLQPEDLATYYCQQYYSYPLTFGGGTKLEIKR
notes: Generated from the VH and VL of hybridoma PTA-8221; also called comparator antibody 9E4
B11: in experiment [8], the Ka was 2.58e+08 M⁻¹ and the dissociation constant (Kd) was 3.88 nM.

B12: GM285 (antibody, V domains shown)
VH: EVQLLESGGGLVQPGGSLRLSCAASGFTFSRFTMTWVRQAPGKGLEWVSAISGSGGGTSYADSVKGRLTVSRDNSKNTLYLQMNSLRAEDTAVYYCAKNWAPFDYWGQGTLVT
VL: not shown
notes: Human IgG1/kappa
Consider B12, for which, in [9], the binding result is “no binding”. For the same molecule, in experiment [10], the binding result is listed as “no binding”. In [11], the Ka is 2.33e+08 M⁻¹ and the Kd is 4.3 nM.

The values are drawn from patent publication US20180179273A1 (H LUNDBECK A S, published 2018).
